This sample holds only a part of the variants without activity.

B1: TPR 5TU (parent)
chain: GGAUCUUCUCGAUCUAACAAAAAAGACAAAUCUGCCACAAAGCUUGAGAGCAUCUUCGGAUGCAGAGGCGGCAGCCUUCGGUGGCGCGAUAGCGCCAACGUUCUCAACUAUGACACGCAAAACGCGUGCUCCGUUGAAUGGAGUUUAUCAUG

The data set covers variants of B1. Briefly: polymerase ribozyme fitness, log enrichment relative to wild type (log ratio); higher = more active; in vitro selection for triplet polymerase activity. In a few lines:
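Input and output libraries were sequenced on Illumina after a single in vitro selection round, run in triplicate on PCR-built, transcribed mutant libraries of each subunit of a heterodimeric triplet polymerase ribozyme. Selection annealed libraries to a biotinylated primer, the partner subunit and triplets, incubated them frozen at −7 °C, then gel-excised extended constructs for streptavidin-bead capture and RT-PCR. Genotypes with ≥10 input reads and ≥1 read per output were kept. Fitness is the logarithm, taken in base 2, of genotype enrichment divided by wild-type enrichment, using inverse-variance-weighted replicate averages.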
Consider C8A A19C C72A C95A C96G C131U G136C, for which the “polymerase ribozyme fitness (log ratio)” value is at most -4.2.

Turning to U6G C57A U102G, the “polymerase ribozyme fitness (log ratio)” value is -1.76.

C5G U44A G59A A121C A122G: the “polymerase ribozyme fitness (log ratio)” value was at most -4.2.

As to U6G A47G U53G U55A C76G C85G C103G G128U C129A U145G, the “polymerase ribozyme fitness (log ratio)” value is at most -4.2.

Turning to U6A C79A C99U A107G, the “polymerase ribozyme fitness (log ratio)” value is at most -4.2.

Regarding U7A C51U, the “polymerase ribozyme fitness (log ratio)” value was -3.25.

For U7A C14G U31C G86A, the “polymerase ribozyme fitness (log ratio)” value was at most -4.2.

Consider C5U U31C A37U C76G U109C U135C, for which the “polymerase ribozyme fitness (log ratio)” value was at most -4.2.

As to U7A A64U G74A C79A C85A G94U U130G, the “polymerase ribozyme fitness (log ratio)” value is at most -4.2.

As for U6A A17G C27U A66U U145A, the “polymerase ribozyme fitness (log ratio)” value is at most -4.2.

As for U6A A12U U15C A137C, the “polymerase ribozyme fitness (log ratio)” value is -3.12.

In the case of C5U U13G A22U U55A G65U G70U C87A C95U A98G A137C G141A G143C, the “polymerase ribozyme fitness (log ratio)” value was at most -4.2.

For the variant U7A C87U C96A A150U, the “polymerase ribozyme fitness (log ratio)” value was -3.72.

In the case of U7C A12U, the “polymerase ribozyme fitness (log ratio)” value is -2.57.

As for C5U C18U C85A, the “polymerase ribozyme fitness (log ratio)” value was -0.0024.

Regarding U7G A20C C38A G83A, the “polymerase ribozyme fitness (log ratio)” value is -3.16.

For U7G A41U U53A C54U U56A C57A G71U C95A G112C, the “polymerase ribozyme fitness (log ratio)” value was at most -4.2.

As to C8A A23C A26C U33C U78G A98G U144G, the “polymerase ribozyme fitness (log ratio)” value was at most -4.2.

For the variant U6C C10A C14G A49C C57U A91C C114U, the “polymerase ribozyme fitness (log ratio)” value is at most -4.2.

In the case of C5U A40G C85G, the “polymerase ribozyme fitness (log ratio)” value was -3.18.

As for C5G G84A C96A, the “polymerase ribozyme fitness (log ratio)” value was -1.4.

Consider U6G A26U A52G G141U U145G, for which the “polymerase ribozyme fitness (log ratio)” value is at most -4.2.

With U7G A17U A52C C85U C116A, the “polymerase ribozyme fitness (log ratio)” value was -3.83.

As for C5G U31A A147C, the “polymerase ribozyme fitness (log ratio)” value is -0.56.

In the case of C5G G86U, the “polymerase ribozyme fitness (log ratio)” value is -2.77.

For U7G C87U, the “polymerase ribozyme fitness (log ratio)” value is -3.04.

In the case of U7G G50C A52C G84A C114U A138G, the “polymerase ribozyme fitness (log ratio)” value is at most -4.2.

For C5G C76U G84U A113U A122U, the “polymerase ribozyme fitness (log ratio)” value was -4.

For the variant U7C U53A, the “polymerase ribozyme fitness (log ratio)” value is -2.82.

As for C5U C69A, the “polymerase ribozyme fitness (log ratio)” value is -2.55.

For the variant U6G A28U C38U A66G C95G A120U A150U, the “polymerase ribozyme fitness (log ratio)” value is at most -4.2.

U6A C57U A60U C99U U111G G126U C129G: the “polymerase ribozyme fitness (log ratio)” value was at most -4.2.

In the case of C5G A37U C43U A98G A121G, the “polymerase ribozyme fitness (log ratio)” value was at most -4.2.

With U7A G11A C32U C35G A41U U55A C87G C95A C114U, the “polymerase ribozyme fitness (log ratio)” value is at most -4.2.

As for U7C C8U U45A G68C C87G A91C, the “polymerase ribozyme fitness (log ratio)” value is at most -4.2.

Turning to U7A C63U A73G A120G U146A, the “polymerase ribozyme fitness (log ratio)” value was at most -4.2.

U6G U15A C95G C96U U101G C103A C131A C149A: the “polymerase ribozyme fitness (log ratio)” value was at most -4.2.

Consider U6C C38U A121U U127A G128U, for which the “polymerase ribozyme fitness (log ratio)” value is -4.07.

U6C U31C A119G: the “polymerase ribozyme fitness (log ratio)” value was -0.646.

Take C8A A24U G71A G84A G143C: the “polymerase ribozyme fitness (log ratio)” value is at most -4.2.

As to C5G G48A U61A C99G C132G G133U A142C, the “polymerase ribozyme fitness (log ratio)” value is at most -4.2.

Regarding U7A G11C A52G A89C A91G C95U U111C C131U, the “polymerase ribozyme fitness (log ratio)” value is at most -4.2.

Take U6C C35G A66G C96U U109A G126U: the “polymerase ribozyme fitness (log ratio)” value was at most -4.2.

For U6C C36A G67C C85U G124C C132U, the “polymerase ribozyme fitness (log ratio)” value was at most -4.2.

Consider U6G G92U C105A C114G A142U, for which the “polymerase ribozyme fitness (log ratio)” value was at most -4.2.

In the case of U6A A26G A64C C87U A89C U146C, the “polymerase ribozyme fitness (log ratio)” value is at most -4.2.

For the variant C5U C75U C85U, the “polymerase ribozyme fitness (log ratio)” value turned out to be 1.35.

As to U6A C125G, the “polymerase ribozyme fitness (log ratio)” value was -0.431.

In the case of U6A A21U U55A, the “polymerase ribozyme fitness (log ratio)” value was -0.47.

As for U6G C14A C79A U145C, the “polymerase ribozyme fitness (log ratio)” value is at most -4.2.

For the variant U7G C103A, the “polymerase ribozyme fitness (log ratio)” value was -3.85.

For U6C A26U C35A A73G C75U C93A C116A A138C, the “polymerase ribozyme fitness (log ratio)” value was at most -4.2.

Regarding C5U C51A G117C, the “polymerase ribozyme fitness (log ratio)” value is -2.16.

For the variant U7G A21U, the “polymerase ribozyme fitness (log ratio)” value is -2.97.

For the variant U6C A49C C99A U146C, the “polymerase ribozyme fitness (log ratio)” value was at most -4.2.

U6G A142U: the “polymerase ribozyme fitness (log ratio)” value was -0.0461.

With U6C A47U, the “polymerase ribozyme fitness (log ratio)” value was -0.576.

With C5U U45A, the “polymerase ribozyme fitness (log ratio)” value was -2.1.

Regarding U6C C32U C54A, the “polymerase ribozyme fitness (log ratio)” value was -4.

For the variant C5U A21G U139C U146A, the “polymerase ribozyme fitness (log ratio)” value was -3.99.

Consider U6C G50C G59A G68U A137C, for which the “polymerase ribozyme fitness (log ratio)” value is at most -4.2.

On to U6C U45A, for which the “polymerase ribozyme fitness (log ratio)” value is -3.75.

On to C5G C108U, for which the “polymerase ribozyme fitness (log ratio)” value was -3.65.

In the case of U6G C76U C93G, the “polymerase ribozyme fitness (log ratio)” value was -2.95.

Turning to C5U A20G A49U G86U, the “polymerase ribozyme fitness (log ratio)” value was -3.71.

Turning to U6A U9G C14G G83C G112U G136C, the “polymerase ribozyme fitness (log ratio)” value was at most -4.2.

On to C5U C85U U127C U145A, for which the “polymerase ribozyme fitness (log ratio)” value was -2.5.

Regarding U7C C38A, the “polymerase ribozyme fitness (log ratio)” value is -2.38.

Consider C5G C85G, for which the “polymerase ribozyme fitness (log ratio)” value is -1.46.

For C5G C85U, the “polymerase ribozyme fitness (log ratio)” value was -1.17.

In the case of C5U A19G A21G A29G C87G C95G, the “polymerase ribozyme fitness (log ratio)” value was at most -4.2.

For U6C G71A G92A A97G G141U, the “polymerase ribozyme fitness (log ratio)” value was at most -4.2.

Turning to U6G G94A A115C, the “polymerase ribozyme fitness (log ratio)” value is -1.5.

Turning to U7G C125U, the “polymerase ribozyme fitness (log ratio)” value was -3.39.

Regarding U7G C18U A30U G59U U77A G83C A138C, the “polymerase ribozyme fitness (log ratio)” value was at most -4.2.

As to U6G A16G C85U C125A, the “polymerase ribozyme fitness (log ratio)” value is -1.05.

Turning to C5G G50A C87U, the “polymerase ribozyme fitness (log ratio)” value is -2.86.

Regarding U7G A23C A47C U53A C116A, the “polymerase ribozyme fitness (log ratio)” value was at most -4.2.

Turning to C5U G143C, the “polymerase ribozyme fitness (log ratio)” value is -1.95.

As to U6C C18G A23G C27U A30G C54U C63A G84A C103U, the “polymerase ribozyme fitness (log ratio)” value is at most -4.2.

C5G G81A A98G A121U G143C: the “polymerase ribozyme fitness (log ratio)” value is -2.76.

Regarding U7C C35A C87A C95U C116G, the “polymerase ribozyme fitness (log ratio)” value is at most -4.2.

C5U A28U C51G C75G C95U G141U: the “polymerase ribozyme fitness (log ratio)” value was -4.02.

Regarding U6A A12G A30C A66U C95A A106G A120G G126C A150U, the “polymerase ribozyme fitness (log ratio)” value was at most -4.2.

The record behind these values is the RNAGym collection of RNA variant scans (doi:10.1073/pnas.2313332121).
